Measurements published in patent publication US20110118447A1.
Substitutions are numbered along the chain they refer to. In names and notes the source's numbering stands.

B1: C5A (XPA23) VH V50N (antibody, V domains shown)
VH: EVQLLESGGGLVQPGGSLRLSCAASGFTFSKYFMFWVRQAPGKGLEWVSNISPSGGMTRYADSVKGRFTISRDNSKNTLYLQMNSLRAEDTAVYYCARVGYGGNSDYWGQGTLVTVSS
VL: DIQMTQSPSSVSASVGDRLTIICRASQDINRWLAWYQQTPGNAPKLLIHSATSLQSGVPSRFSGSGSGTDFTLTINSLQPEDFATYYCQQADSFPLTFGGGTKVEIK
B2: C5A (XPA23) VH P53Y (antibody, V domains shown)
VH: B1 VH with N50V, P53Y
VL: B1 VL
B3: C5A (XPA23) VH I51Y (antibody, V domains shown)
VH: B1 VH with N50V, I51Y
VL: B1 VL
B4: C5A (XPA23) VH P53E (antibody, V domains shown)
VH: B1 VH with N50V, P53E
VL: B1 VL
B5: C5A (XPA23) VH I51N (antibody, V domains shown)
VH: B1 VH with N50V, I51N
VL: B1 VL
B6: C5A (XPA23) VH I51S (antibody, V domains shown)
VH: B1 VH with N50V, I51S
VL: B1 VL
B7: C5A (XPA23) VH I51H (antibody, V domains shown)
VH: B1 VH with N50V, I51H
VL: B1 VL
B8: C5A (XPA23) VH P53N (antibody, V domains shown)
VH: B1 VH with N50V, P53N
VL: B1 VL
B9: C5A (XPA23) VH S54K (antibody, V domains shown)
VH: B1 VH with N50V, S54K
VL: B1 VL
B10: C5A (XPA23) VH I51Q (antibody, V domains shown)
VH: B1 VH with N50V, I51Q
VL: B1 VL
B11: C5A (XPA23) VH G55E (antibody, V domains shown)
VH: B1 VH with N50V, G55E
VL: B1 VL
B12: C5A (XPA23) VH I51K (antibody, V domains shown)
VH: B1 VH with N50V, I51K
VL: B1 VL
B13: C5A (XPA23) VH S54D (antibody, V domains shown)
VH: B1 VH with N50V, S54D
VL: B1 VL
B14: C5A (XPA23) VH P53Q (antibody, V domains shown)
VH: B1 VH with N50V, P53Q
VL: B1 VL
B15: C5A (XPA23) VH P53S (antibody, V domains shown)
VH: B1 VH with N50V, P53S
VL: B1 VL
B16: C5A (XPA23) VH S54Q (antibody, V domains shown)
VH: B1 VH with N50V, S54Q
VL: B1 VL
B17: C5A (XPA23) VH I51D (antibody, V domains shown)
VH: B1 VH with N50V, I51D
VL: B1 VL
B18: C5A (XPA23) VH I51E (antibody, V domains shown)
VH: B1 VH with N50V, I51E
VL: B1 VL
B19: C5A (XPA23) VH I51T (antibody, V domains shown)
VH: B1 VH with N50V, I51T
VL: B1 VL
B20: C5A (XPA23) VH S52T (antibody, V domains shown)
VH: B1 VH with N50V, S52T
VL: B1 VL
B21: C5A (XPA23) VH G55K (antibody, V domains shown)
VH: B1 VH with N50V, G55K
VL: B1 VL
B22: C5A (XPA23) VH S54Y (antibody, V domains shown)
VH: B1 VH with N50V, S54Y
VL: B1 VL
B23: C5A (XPA23) VH S54R (antibody, V domains shown)
VH: B1 VH with N50V, S54R
VL: B1 VL
B24: C5A (XPA23) VH I51R (antibody, V domains shown)
VH: B1 VH with N50V, I51R
VL: B1 VL
B25: C5A (XPA23) VH S54E (antibody, V domains shown)
VH: B1 VH with N50V, S54E
VL: B1 VL
B26: C5A (XPA23) VH S54N (antibody, V domains shown)
VH: B1 VH with N50V, S54N
VL: B1 VL
B27: C5A (XPA23) VH S54T (antibody, V domains shown)
VH: B1 VH with N50V, S54T
VL: B1 VL
B28: C5A (XPA23) VH P53K (antibody, V domains shown)
VH: B1 VH with N50V, P53K
VL: B1 VL

Target: binding partner of C5A (XPA23)
Assay: Biacore, K-off

| Binder | fold difference in affinity vs original [fold] |
| --- | --- |
| B1 | 0.03 |
| B2 | 0.03 |
| B3 | 1.75 |
| B4 | 0.03 |
| B5 | 0.68 |
| B6 | 0.69 |
| B7 | 0.08 |
| B8 | 0.06 |
| B9 | 1.53 |
| B10 | 0.83 |
| B11 | 0.11 |
| B12 | 0.11 |
| B13 | 0.12 |
| B14 | 0.03 |
| B15 | 0.03 |
| B16 | 1.01 |
| B17 | 0.07 |
| B18 | 0.73 |
| B19 | 0.86 |
| B20 | 0.04 |
| B21 | 0.11 |
| B22 | 0.99 |
| B23 | 1.43 |
| B24 | 0.1 |
| B25 | 0.03 |
| B26 | 0.08 |
| B27 | 0.14 |
| B28 | 0.04 |

Target: binding partner of C5A (XPA23)
Assay: Biacore

| Binder | fold affinity vs original [fold] | fold difference in affinity vs original [fold] |
| --- | --- | --- |
| B1 | 0.03 | – |
| B2 | 0.03 | – |
| B3 | 1.75 | – |
| B4 | 0.03 | – |
| B5 | 0.68 | – |
| B6 | 0.69 | – |
| B7 | 0.08 | – |
| B8 | 0.06 | – |
| B9 | 1.53 | – |
| B10 | 0.83 | – |
| B11 | 0.11 | – |
| B12 | 0.11 | – |
| B13 | 0.12 | – |
| B14 | 0.03 | – |
| B15 | 0.03 | – |
| B16 | 1.01 | – |
| B17 | 0.07 | – |
| B18 | 0.73 | – |
| B19 | – | 0.86 |
| B20 | – | 0.04 |
| B21 | 0.11 | – |
| B22 | 0.99 | – |
| B23 | 1.43 | – |
| B24 | 0.1 | – |
| B25 | 0.03 | – |
| B26 | 0.08 | – |
| B27 | – | 0.14 |
| B28 | 0.04 | – |
